Reference: patent US20220112249A1 (OXFORD UNIVERSITY INNOVATION, published 2022)

Target: T1, fHbp V1.1 with PorA VR2 P1.16 loop in position 5 (P5) (Neisseria meningitidis, UniProt E6MV22 20-274)
T1 sequence: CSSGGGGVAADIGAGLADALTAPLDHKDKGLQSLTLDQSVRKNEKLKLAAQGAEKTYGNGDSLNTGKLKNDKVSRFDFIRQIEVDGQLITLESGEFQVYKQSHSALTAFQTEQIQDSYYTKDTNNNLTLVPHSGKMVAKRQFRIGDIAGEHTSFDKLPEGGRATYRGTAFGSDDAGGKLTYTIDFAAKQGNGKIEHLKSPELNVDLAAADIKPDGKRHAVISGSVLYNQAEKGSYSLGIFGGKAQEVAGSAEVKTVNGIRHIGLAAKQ
Test: SPR (BIAcore), fHbp:PorA coupled to the chip, CFH (fH67) flowed over

B1: Complement Factor H (CFH) domains 6 and 7 (other)
chain: TLKPCDYPDIKHGGLYHENMRRPYFPVAVGKYYSYYCDEHFETPSGSYWDHIHCTQDGWSPAVPCLRKCYFPYLENGYNQNYGRKFVQGKSIDVACHPGYALPKAQTTVTCMENGWSPTPRCI
notes: domain: fH67 (CFH domains 6-7); also called fH67
**Q.** Does B1 bind?
**A.** Result: no binding (tested: 0.5-32 nM)
